According to patent publication US20250171549A1 (Amgen, published 2025):
Where no end group is shown, it is not given here.

Biological target: T1, Peptide 1 (biotinylated N-terminus CCR8 peptide, amino acids 1-12) (human, also: biotinylated, position not given here)
T1 construct: Captured on streptavidin polystyrene beads
T1 peptide: MDYTLDLSVTTV
Test: flow cytometry, biotinylated peptide on streptavidin beads
Protocol: The biotinylated human CCR8 peptides were captured on streptavidin polystyrene beads (Spherotech) in FACS buffer (PBS+2% Fetal Bovine Serum) at a final protein concentration of 50-100 ng/ml and incubated for 30 minutes at room temperature. Beads were washed twice with FACS buffer to remove unbound protein, centrifuged to pellet the beads, and resuspended and pooled together in StabilGuard (SurModics). The pooled biotinylated human CCR8 coated beads were added to hybridoma supernatant samples in a 96-well plate, such that the final antibody concentration was 5.0 μg/mL, and then incubated for one hour at room temperature.
Plates were washed twice with FACS buffer, centrifuged to pellet the beads, and supernatant was removed and resuspended in FACS buffer to remove unbound antibodies. Alexa Fluor 488 goat anti-human or rat IgG (Fcγ fragment specific) secondary antibodies (Jackson ImmunoResearch) made up in FACS buffer at 5.0 μg/mL were added to each well, resuspended with beads and incubated for 15 minutes at room temperature. Plates were washed twice with FACS buffer, centrifuged to pellet the beads, and supernatant was removed and resuspended in FACS buffer to remove unbound secondary antibodies. Samples were then resuspended in FACS buffer and read on either IntelliCyt® iQue Flow Cytometer.
Data are represented as a ratio of geometric mean binding to beads coated with specific peptide divided by geometric mean of binding to a bead coated with a negative control peptide (peptide with unrelated sequence). A value above two represents presence of binding.

B1: Antibody 2 IgG2 (antibody, V domains shown)
VH: QVQLVESGGGVVQPGRSLRLSCAASGFTFSNYGMHWVRQAPGKGLEWVAVISYDGSNKFYADSVKGRFTISRDNSKKTLYLQMSSLRVEDTAVYYCARAGGIGRFDYWGQGTLVTVSS
VL: DFVMTQTPLSLSVTPGQPASISCKYSQSLLHSDGKTYLFWYLQKPGQPPHLLIYEVSNRFSGVPDRFSGSGSGTDFTLKISRVEAEDVGLYYCMQTLKLPLTFGGGTKVEINR
notes: IgG2; tested as hybridoma supernatant
binding result: no binding
